# Where no end group is shown, it is not given here. The star is where a group is joined. Succinimide(1-Et,3-yl) = CCN1C(=O)CC(*)C1=O
# T1: human corticotrophin releasing hormone receptor type 2 (CRHR2) (human, UniProt Q13324 1-411)
# T1 sequence (looked up): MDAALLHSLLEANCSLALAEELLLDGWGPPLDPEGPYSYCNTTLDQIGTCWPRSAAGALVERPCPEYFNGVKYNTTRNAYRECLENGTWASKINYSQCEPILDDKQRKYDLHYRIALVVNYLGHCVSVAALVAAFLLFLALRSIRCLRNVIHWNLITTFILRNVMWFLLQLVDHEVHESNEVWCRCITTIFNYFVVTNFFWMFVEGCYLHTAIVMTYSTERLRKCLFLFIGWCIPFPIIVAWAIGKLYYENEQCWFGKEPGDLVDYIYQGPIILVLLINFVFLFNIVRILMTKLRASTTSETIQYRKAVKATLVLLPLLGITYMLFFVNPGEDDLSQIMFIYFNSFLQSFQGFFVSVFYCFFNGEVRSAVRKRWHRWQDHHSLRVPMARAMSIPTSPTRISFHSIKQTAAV
# Molecular target: T1, human corticotrophin releasing hormone …
# Experiment: cell-based or functional assay
Binder,Log DR [log10],pA50
TKFTLSLDVPTNIMNLLFNIAKAKNLRAQAAACAHLMAQI-NH2 [Cys-variant stresscopin-like peptide SEQ ID NO: 34],> 3.19,~6.32 -log10(M)
TKFTLSLDVPTNIMNLLFNIAKAKNLRCQAAANAHLMAQI-NH2 [Cys-variant stresscopin-like peptide SEQ ID NO: 29],0,9.47 -log10(M)
TKFTLSLDVPTNIMNLLFNIAKAKNLRAQAAACAHLMAQI (NES-PEG (about 20 kDa) on Cys 33; C-terminal amide (-NH2)) [Pegylated Cys-variant stresscopin-like peptide with NES linker and PEG about 20 kDa SEQ ID NO: 87],> 3.68,~6 -log10(M)
TKFTLSLDVPTNIMNLLFNIAKAKNLRAQAAANAHLMCQI (NES-PEG (about 20 kDa) on Cys 38; C-terminal amide (-NH2)) [Pegylated Cys-variant stresscopin-like peptide with NES linker and PEG about 20 kDa SEQ ID NO: 92],1.55,8.12 -log10(M)
TKFTLSLDVPTNIMNLLFNIAKAKNLRAQAAANAHCMAQI (NES-PEG (about 20 kDa) on Cys 36; C-terminal amide (-NH2)) [Pegylated Cys-variant stresscopin-like peptide with NES linker and PEG about 20 kDa SEQ ID NO: 90],~2.17,~7.49 -log10(M)
TKFTLSLDVPTNIMNLLFNIAKAKNLRAQAAANAHLMAQC (NES-PEG (about 20 kDa) on Cys 40; C-terminal amide (-NH2)) [Pegylated Cys-variant stresscopin-like peptide with NES linker and PEG about 20 kDa SEQ ID NO: 94],> 2.39,~7 -log10(M)
TKFTLSLDVPTNIMNLLFNIAKAKNLRACAAANAHLMAQI (NES-PEG (about 20 kDa) on Cys 29; C-terminal amide (-NH2)) [Pegylated Cys-variant stresscopin-like peptide with NES linker and PEG about 20 kDa SEQ ID NO: 83],1.63,7.91 -log10(M)
"TKFTLSLDVPTNIMNLLFNIAKAKNLRCQAAANAHLMAQI (NES-PEG MW5000 on Cys 28; C-terminal amide (-NH2)) [Pegylated Cys-variant stresscopin-like peptide, NES-PEG MW5000, SEQ ID NO: 96]",1,8.74 -log10(M)
TKFTLSLDVPTNIMNLLFNIAKAKNLRAQAACNAHLMAQI-NH2 [Cys-variant stresscopin-like peptide SEQ ID NO: 33],0.45,9.07 -log10(M)
TKFTLSLDVPTNIMNLLFNIAKAKNLRACAAANAHLMAQI-NH2 [Cys-variant stresscopin-like peptide SEQ ID NO: 30],1.28,8.4 -log10(M)
TKFTLSLDVPTNIMNLLFNIAKAKNLRAQAAANAHLMACI-NH2 [Cys-variant stresscopin-like peptide SEQ ID NO: 40],0.55,9.08 -log10(M)
TKFTLSLDVPTNIMNLLFNIAKAKNLRAQAAANAHLMCQI-NH2 [Cys-variant stresscopin-like peptide SEQ ID NO: 39],0.41,9.21 -log10(M)
TKFTLSLDVPTNIMNLLFNIAKAKNLRAQAAANAHLMAQC-NH2 [Cys-variant stresscopin-like peptide SEQ ID NO: 41],2.07,7.45 -log10(M)
TKFTLSLDVPTNIMNLLFNIAKAKNLRAQACANAHLMAQI-NH2 [Cys-variant stresscopin-like peptide SEQ ID NO: 32],0.11,9.41 -log10(M)
TKFTLSLDVPTNIMNLLFNIAKAKNLRAQAAANCHLMAQI-NH2 [Cys-variant stresscopin-like peptide SEQ ID NO: 35],0.7,8.93 -log10(M)
TKFTLSLDVPTNIMNLLFNIAKAKNLRAQCAANAHLMAQI-NH2 [Cys-variant stresscopin-like peptide SEQ ID NO: 31],1.61,8.02 -log10(M)

# Next, values leading:
Log DR [log10],pA50,Binder
1.82,7.83 -log10(M),TKFTLSLDVPTNIMNLLFNIAKAKNLCAQAAANAHLMAQI (NES-PEG (about 20 kDa) on Cys 27; C-terminal amide (-NH2)) [Pegylated Cys-variant stresscopin-like peptide with NES linker and PEG about 20 kDa SEQ ID NO: 81]
0.43,9.31 -log10(M),"TKFTLSLDVPTNIMNLLFNIAKAKNLRCQAAANAHLMAQI (NES-PEG MW2000 on Cys 28; C-terminal amide (-NH2)) [Pegylated Cys-variant stresscopin-like peptide, NES-PEG MW2000, SEQ ID NO: 95]"
1.55,8.12 -log10(M),TKFTLSLDVPTNIMNLLFNIAKAKNLRAQAAANCHLMAQI (NES-PEG (about 20 kDa) on Cys 34; C-terminal amide (-NH2)) [Pegylated Cys-variant stresscopin-like peptide with NES linker and PEG about 20 kDa SEQ ID NO: 88]
~0.74,~9 -log10(M),"TKFTLSLDVPTNIMNLLFNIAKAKNLRCQAAANAHLMAQI (NES-PEG MW12000 on Cys 28; C-terminal amide (-NH2)) [Pegylated Cys-variant stresscopin-like peptide, NES-PEG MW12000, SEQ ID NO: 97]"
1.12,8.4 -log10(M),TKFTLSLDVPTNIMNLLFNIAKAKNLRCQAAANAHLMAQI (NES-PEG (about 20 kDa; MW20000) on Cys 28; C-terminal amide (-NH2)) [Pegylated Cys-variant stresscopin-like peptide with NES linker and PEG about 20 kDa SEQ ID NO: 82]
> 3.43,~6.23 -log10(M),TKFTLSLDVPTNIMNLLFNIAKAKNLRAQAAANAHLCAQI (NES-PEG (about 20 kDa) on Cys 37; C-terminal amide (-NH2)) [Pegylated Cys-variant stresscopin-like peptide with NES linker and PEG about 20 kDa SEQ ID NO: 91]
~2.84,~6.82 -log10(M),TKFTLSLDVPTNIMNLLFNIAKAKNLRAQCAANAHLMAQI (NES-PEG (about 20 kDa) on Cys 30; C-terminal amide (-NH2)) [Pegylated Cys-variant stresscopin-like peptide with NES linker and PEG about 20 kDa SEQ ID NO: 84]
0.98,8.48 -log10(M),TKFTLSLDVPTNIMNLLFNIAKAKNLRAQAAANACLMAQI (NES-PEG (about 20 kDa) on Cys 35; C-terminal amide (-NH2)) [Pegylated Cys-variant stresscopin-like peptide with NES linker and PEG about 20 kDa SEQ ID NO: 89]
0.89,8.51 -log10(M),TKFTLSLDVPTNIMNLLFNIAKAKNLRAQACANAHLMAQI (NES-PEG (about 20 kDa) on Cys 31; C-terminal amide (-NH2)) [Pegylated Cys-variant stresscopin-like peptide with NES linker and PEG about 20 kDa SEQ ID NO: 85]
1.47,8.2 -log10(M),TKFTLSLDVPTNIMNLLFNIAKAKNLRAQAAANAHLMACI (NES-PEG (about 20 kDa) on Cys 39; C-terminal amide (-NH2)) [Pegylated Cys-variant stresscopin-like peptide with NES linker and PEG about 20 kDa SEQ ID NO: 93]
0.82,8.79 -log10(M),TKFTLSLDVPTNIMNLLFNIAKAKNLRAQAACNAHLMAQI (NES-PEG (about 20 kDa) on Cys 32; C-terminal amide (-NH2)) [Pegylated Cys-variant stresscopin-like peptide with NES linker and PEG about 20 kDa SEQ ID NO: 86]
> 2.95,~6.67 -log10(M),TKFTLSLDVPTNIMNLLFNIAKAKNLRAQAAANAHLCAQI-NH2 [Cys-variant stresscopin-like peptide SEQ ID NO: 38]
1.05,8.58 -log10(M),TKFTLSLDVPTNIMNLLFNIAKAKNLRAQAAANAHCMAQI-NH2 [Cys-variant stresscopin-like peptide SEQ ID NO: 37]
0.42,9.1 -log10(M),TKFTLSLDVPTNIMNLLFNIAKAKNLRAQAAANACLMAQI-NH2 [Cys-variant stresscopin-like peptide SEQ ID NO: 36]
-0.32,9.79 -log10(M),"TKFTLSLDVPTNIMNLLFNIAKAKNLRAQAAANAC(Succinimide(1-Et,3-yl))LMAQI-NH2 (N-terminus assumed; SMILES CC[C@H](C)[C@H](NC(=O)[C@H](CCC(N)=O)NC(=O)[C@H](C)NC(=O)[C@H](CCSC)NC(=O)[C@H](CC(C)C)NC(=O)[C@H](CSC1CC(=O)N(CC)C1=O)NC(=O)[C@H](C)NC(=O)[C@H](CC(N)=O)NC(=O)[C@H](C)NC(=O)[C@H](C)NC(=O)[C@H](C)NC(=O)[C@H](CCC(N)=O)NC(=O)[C@H](C)NC(=O)[C@H](CCCNC(=N)N)NC(=O)[C@H](CC(C)C)NC(=O)[C@H](CC(N)=O)NC(=O)[C@H](CCCCN)NC(=O)[C@H](C)NC(=O)[C@H](CCCCN)NC(=O)[C@H](C)NC(=O)[C@@H](NC(=O)[C@H](CC(N)=O)NC(=O)[C@H](Cc1ccccc1)NC(=O)[C@H](CC(C)C)NC(=O)[C@H](CC(C)C)NC(=O)[C@H](CC(N)=O)NC(=O)[C@H](CCSC)NC(=O)[C@@H](NC(=O)[C@H](CC(N)=O)NC(=O)[C@@H](NC(=O)[C@@H]1CCCN1C(=O)[C@@H](NC(=O)[C@H](CC(=O)O)NC(=O)[C@H](CC(C)C)NC(=O)[C@H](CO)NC(=O)[C@H](CC(C)C)NC(=O)[C@@H](NC(=O)[C@H](Cc1ccccc1)NC(=O)[C@H](CCCCN)NC(=O)[C@@H](N)[C@@H](C)O)[C@@H](C)O)C(C)C)[C@@H](C)O)[C@@H](C)CC)[C@@H](C)CC)C(N)=O) [Cys-variant of stresscopin peptide with N-Ethylsuccinimide (NES) reactive group SEQ ID NO: 43]"
~1.72,~7.75 -log10(M),"TKFTLSLDVPTNIMNLLFNIAKAKNLRAQAAANAHLMAQC(Succinimide(1-Et,3-yl))-NH2 (N-terminus assumed; SMILES CC[C@H](C)[C@H](NC(=O)[C@H](CC(N)=O)NC(=O)[C@H](Cc1ccccc1)NC(=O)[C@H](CC(C)C)NC(=O)[C@H](CC(C)C)NC(=O)[C@H](CC(N)=O)NC(=O)[C@H](CCSC)NC(=O)[C@@H](NC(=O)[C@H](CC(N)=O)NC(=O)[C@@H](NC(=O)[C@@H]1CCCN1C(=O)[C@@H](NC(=O)[C@H](CC(=O)O)NC(=O)[C@H](CC(C)C)NC(=O)[C@H](CO)NC(=O)[C@H](CC(C)C)NC(=O)[C@@H](NC(=O)[C@H](Cc1ccccc1)NC(=O)[C@H](CCCCN)NC(=O)[C@@H](N)[C@@H](C)O)[C@@H](C)O)C(C)C)[C@@H](C)O)[C@@H](C)CC)C(=O)N[C@@H](C)C(=O)N[C@@H](CCCCN)C(=O)N[C@@H](C)C(=O)N[C@@H](CCCCN)C(=O)N[C@@H](CC(N)=O)C(=O)N[C@@H](CC(C)C)C(=O)N[C@@H](CCCNC(=N)N)C(=O)N[C@@H](C)C(=O)N[C@@H](CCC(N)=O)C(=O)N[C@@H](C)C(=O)N[C@@H](C)C(=O)N[C@@H](C)C(=O)N[C@@H](CC(N)=O)C(=O)N[C@@H](C)C(=O)N[C@@H](Cc1c[nH]cn1)C(=O)N[C@@H](CC(C)C)C(=O)N[C@@H](CCSC)C(=O)N[C@@H](C)C(=O)N[C@@H](CCC(N)=O)C(=O)N[C@@H](CSC1CC(=O)N(CC)C1=O)C(N)=O) [Cys-variant of stresscopin peptide with N-Ethylsuccinimide (NES) reactive group SEQ ID NO: 42]"

# From patent US20110105397A1, “METHOD FOR TREATING HEART FAILURE WITH STRESSCOPIN-LIKE PEPTIDES” (priority 2009, published 2011)
